From US20210253718A1, “FRIZZLED5 PROTEIN-BINDING AGENTS” (Modmab Therapeutics Corporation, priority 2016, published 2021)
Changes are numbered by the printed parent chain.

T1: FZD6 CRD (Homo sapiens, UniProt O60353)
T1 construct: S20-P146; GPI anchor signal (C); expressed in transfected cells; host or cells: CHO cells, lentiviral pLenti-puro
T1 sequence (O60353 20-146): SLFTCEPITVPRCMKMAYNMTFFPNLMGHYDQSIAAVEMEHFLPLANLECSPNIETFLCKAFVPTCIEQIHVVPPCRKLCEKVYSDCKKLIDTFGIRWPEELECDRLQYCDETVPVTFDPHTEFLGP

T2: FZD9 CRD (Homo sapiens, UniProt O00144)
T2 construct: G35-A161; GPI anchor signal (C); expressed in transfected cells; host or cells: CHO cells, lentiviral pLenti-puro
T2 sequence (O00144 35-161): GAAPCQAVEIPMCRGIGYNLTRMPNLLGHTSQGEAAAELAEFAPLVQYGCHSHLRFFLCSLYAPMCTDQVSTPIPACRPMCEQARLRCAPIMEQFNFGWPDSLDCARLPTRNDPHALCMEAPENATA

T3: FZD10 CRD (Homo sapiens, UniProt Q9ULW2)
T3 construct: 30-156; GPI anchor signal (C); expressed in transfected cells; host or cells: CHO cells, lentiviral pLenti-puro
T3 sequence (Q9ULW2 30-156): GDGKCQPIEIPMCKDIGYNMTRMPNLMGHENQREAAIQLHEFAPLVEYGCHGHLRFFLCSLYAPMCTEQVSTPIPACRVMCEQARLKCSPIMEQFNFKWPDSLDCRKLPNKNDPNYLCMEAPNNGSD

T4: FZD5 CRD (Homo sapiens, UniProt Q13467)
T4 construct: K29-T156; GPI anchor signal (C); expressed in transfected cells; host or cells: CHO cells, lentiviral pLenti-puro
T4 sequence (Q13467 29-156): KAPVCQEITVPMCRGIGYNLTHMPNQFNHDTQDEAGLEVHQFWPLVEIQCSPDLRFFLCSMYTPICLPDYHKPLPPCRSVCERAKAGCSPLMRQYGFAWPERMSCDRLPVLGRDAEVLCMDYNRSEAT

T5: FZD4 CRD (Homo sapiens, UniProt Q9ULV1)
T5 construct: E42-V167; GPI anchor signal (C); expressed in transfected cells; host or cells: CHO cells, lentiviral pLenti-puro
T5 sequence (Q9ULV1 42-167): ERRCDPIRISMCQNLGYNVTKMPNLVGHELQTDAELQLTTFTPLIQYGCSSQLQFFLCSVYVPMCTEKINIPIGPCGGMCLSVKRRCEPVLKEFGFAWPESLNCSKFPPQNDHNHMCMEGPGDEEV

B1: Fab-2900: anti-FZD5 Fab with antibody variable region Fv-2900; CDR SEQ ID NOs: 35, 36, 39, 78, 115, 153 (antibody, V domains shown)
VH: EVQLVESGGGLVQPGGSLRLSCAASGFNLSSYYIHWVRQAPGKGLEWVASISSSSSSTSYADSVKGRFTISADTSKNTAYLQMNSLRAEDTAVYYCARGALDYWGQGTLVTVSS
VL: DIQMTQSPSSLSASVGDRVTITCRASQSVSSAVAWYQQKPGKAPKLLIYSASSLYSGVPSRFSGSRSGTDFTLTISSLQPEDFATYYCQQWYSGSSLFTFGQGTKVEIK
B2: Fab-2901: anti-FZD5 Fab with antibody variable region Fv-2901; CDR SEQ ID NOs: 35, 36, 40, 79, 116, 154 (antibody, V domains shown)
VH: EVQLVESGGGLVQPGGSLRLSCAASGFNISYSYMHWVRQAPGKGLEWVASIYSYSSYTYYADSVKGRFTISADTSKNTAYLQMNSLRAEDTAVYYCARSWYYWSPSSGMDYWGQGTLVTVSS
VL: DIQMTQSPSSLSASVGDRVTITCRASQSVSSAVAWYQQKPGKAPKLLIYSASSLYSGVPSRFSGSRSGTDFTLTISSLQPEDFATYYCQQGGFLITFGQGTKVEIK
B3: Fab-2902: anti-FZD5 Fab with antibody variable region Fv-2902; CDR SEQ ID NOs: 35, 36, 41, 80, 117, 153 (antibody, V domains shown)
VH: B1 VH with L29I, S31Y
VL: B1 VL with S93A, G94F, S95G, S96A, F98I
B4: Fab-2903: anti-FZD5 Fab with antibody variable region Fv-2903; CDR SEQ ID NOs: 35, 36, 42, 81, 118, 155 (antibody, V domains shown)
VH: B1 VH with S31Y, S52Y, S53P, S54Y, S57Y, L101I
VL: B1 VL with Y92G, S93G
B5: Fab-2905: anti-FZD5 Fab with antibody variable region Fv-2905; CDR SEQ ID NOs: 35, 36, 44, 83, 120, 157 (antibody, V domains shown)
VH: EVQLVESGGGLVQPGGSLRLSCAASGFNLSYYYMHWVRQAPGKGLEWVASIYSSYSYTSYADSVKGRFTISADTSKNTAYLQMNSLRAEDTAVYYCARSGYALDYWGQGTLVTVSS
VL: DIQMTQSPSSLSASVGDRVTITCRASQSVSSAVAWYQQKPGKAPKLLIYSASSLYSGVPSRFSGSRSGTDFTLTISSLQPEDFATYYCQQSSWYYGYPFTFGQGTKVEIK

tested on: ASPC-1 cells; assay: Effect of anti-FZD5 Fabs on proliferation of pancreatic cancer cell lines (percent growth inhibition); type: cell-based, human; settings: Fab 2 μg/ml

Molecule | percent growth inhibition, ASPC-1 2 μg/ml [%]
B1 | −13.30
B2 | −8.27
B3 | 10.84
B4 | 4.49
B5 | −14.51

tested on: RWP1 cells; assay: as above; type: cell-based, human; settings: Fab 2 μg/ml

Molecule | percent growth inhibition, RWP1 2 μg/ml [%]
B1 | −28.30
B2 | −19.95
B3 | 26.56
B4 | 8.52
B5 | 62.88

tested on: PATU8988S cells; assay: as above; type: cell-based, human; settings: Fab 2 μg/ml

Molecule | percent growth inhibition, PATU8988s 2 μg/ml [%]
B1 | −29.28
B2 | −9.37
B3 | −15.75
B4 | −22.81
B5 | −26.66

target: T1, FZD6 CRD; assay: Immunofluorescence of anti-FZD5 Fab binding to CHO cells overexpressing Frizzled CRD; parameters: key: −: no binding; +: very weak binder; ++: weak binder; +++: good binder; ++++: very good binder; settings: not given
Protocol: (§1) Plasmids: pLCKO lentiviral vector used for knockout (TKO) library construction and expression of individual gRNAs was constructed as described previously (Hart et al., 2015). Briefly, single guide RNA (sgRNA) scaffold was amplified from px330 (Addgene 42230) and cloned into pLKO.TRC005 lentiviral vector (Broad Institute, Cambridge, Mass.) using AgeI/EcoRI restriction sites. BfuAI sites were added at the 5′ end of the sgRNA scaffold for cloning the TKO library or individual gRNA target sequences. Lenti Cas9-2A-BsdR vector used to generate Cas9 stable expression cell lines was constructed as described previously (Hart et al., 2015). Briefly, lentiCRISPR pXPR_001 (Addgene 49535) was modified through removal of the sgRNA scaffold region through NdeI/EcoRI digest and blunt ends generation using Large Klenow Fragment (NEB). 2A-puro was replaced with 2A-BsdR by PCR using the NheI/MluI sites. Each of the 10 human Frizzled cysteine rich domains (CRDs) were cloned into the lentiviral expression plasmid pLenti-puro in the following cassette: FZD_CRD-MYC-GPI.
(§2) To confirm that the FZD5-WNT7B circuit is not driven simply by expression and rule out the possibility of a disconnect between RNA and protein levels for the Wnt receptors in HPAF-II cells, a panel of recombinant Fabs were generated, alternatively referred to herein as ‘Frizzled profiler’, that can detect and discriminate all but one of the ten Frizzled receptors. […] To characterize the binding specificity of these Fabs on cells, a panel of 10 CHO cell lines was generated, each expressing the CRD domain of a different myc-tagged Frizzled family member anchored at the plasma membrane through a GPI anchor (CHO-myc-FZDGPI). Despite the high sequence identity between Frizzled family members (FIG. 7A, FIG. 7B), selective Fabs were identified for FZD4, FZD5, FZD6 and FZD10 as assessed by immunofluorescence and flow cytometry (FIG. 7D and FIG. 8). […] The FZD8 CRD is most homologous to that of FZD5 (FIG. 7B). These Fabs can be used to discriminate expression of FZD1, FZD2, FZD4, FZD5, FZD6, FZD7, FZD8, FZD9 and FZD10 (FIG. 7D and FIG. 8). The ‘Frizzled profiler’ therefore consists of 10 different Fabs that can be used to discriminate expression of 9 different Frizzled family members. The Frizzled profiler was then used to confirm that HPAF-II cells express FZD1, FZD5, FZD6 and possibly FZD8 (FIG. 7E).
(§3) The binding of anti-FZD5 Fabs to cell surface-expressed Frizzled protein was further determined for each member of the Frizzled family via flow cytometry and immunofluorescence analysis of a panel of 10 CHO cell lines, each ectopically over-expressing the extracellular cysteine-rich domain (CRD) of a different Frizzled protein family member.

Molecule | Immunofluorescence binding, Frizzled CRD overexpressed on CHO cells: FZD6
B1 | −
B2 | −
B3 | −
B4 | −
B5 | −

target: T6, FZD2 CRD (Homo sapiens, UniProt Q14332); assay: as above; parameters: key: −: no binding; +: very weak binder; ++: weak binder; +++: good binder; ++++: very good binder; settings: not given
T6 construct: D35-P161; GPI anchor signal (C); expressed in transfected cells; host or cells: CHO cells, lentiviral pLenti-puro
Protocol: as §1, §2, §3

Molecule | Immunofluorescence binding, Frizzled CRD overexpressed on CHO cells: FZD2
B1 | −
B2 | −
B3 | −
B4 | −
B5 | −

target: T2, FZD9 CRD; assay: as above; parameters: key: −: no binding; +: very weak binder; ++: weak binder; +++: good binder; ++++: very good binder; settings: not given
Protocol: as §1, §2, §3

Molecule | Immunofluorescence binding, Frizzled CRD overexpressed on CHO cells: FZD9
B1 | −
B2 | −
B3 | −
B4 | −
B5 | −

target: T3, FZD10 CRD; assay: as above; parameters: key: −: no binding; +: very weak binder; ++: weak binder; +++: good binder; ++++: very good binder; settings: not given
Protocol: as §1, §2, §3

Molecule | Immunofluorescence binding, Frizzled CRD overexpressed on CHO cells: FZD10
B1 | −
B2 | −
B3 | −
B4 | −
B5 | −

target: T4, FZD5 CRD; assay: as above; parameters: key: −: no binding; +: very weak binder; ++: weak binder; +++: good binder; ++++: very good binder; settings: not given
Protocol: as §1, §2, §3

Molecule | Immunofluorescence binding, Frizzled CRD overexpressed on CHO cells: FZD5
B1 | ++++
B2 | ++++
B3 | ++++
B4 | ++++
B5 | +

target: T5, FZD4 CRD; assay: as above; parameters: key: −: no binding; +: very weak binder; ++: weak binder; +++: good binder; ++++: very good binder; settings: not given
Protocol: as §1, §2, §3

Molecule | Immunofluorescence binding, Frizzled CRD overexpressed on CHO cells: FZD4
B1 | −
B2 | −
B3 | −
B4 | −
B5 | −

tested on: CHO cells not expressing Frizzled CRD; assay: Flow cytometry of anti-FZD5 Fab binding to CHO cells not expressing Frizzled CRD (background); settings: not given
From the text: as §3

Molecule | Median fluorescence, Frizzled CRD overexpressed on CHO cells: None
B1 | 3.4
B2 | 3.75
B3 | 4.66
B4 | 4.07
B5 | 3.62
